Assay [1] concerns the target Aβ1-42 fibril (rPeptide, AF-1002) (UniProt P05067). Kind of assay: direct ELISA, coated Aβ1-42 fibril, 50 pmol per well. For orientation: ELISA stands for enzyme-linked immunosorbent assay.
In assay [2] the target is Aβ1-40 monomer (rPeptide, A-1157-2) (UniProt P05067). Kind of assay: direct ELISA, coated Aβ1-40 monomer, 50 pmol per well.
The next assay has as its target Aβ1-42 protofibril (UniProt P05067). Kind of assay: direct ELISA, coated Aβ1-42 protofibril, 50 pmol per well.
Assay [3] addresses biotin-labelled Aβ1-40 monomer (AnaSpec, AS-61483-01) (UniProt P05067). Kind of assay: capture ELISA, antibody coated at 100 ng per well, biotin-Aβ40 monomer.

We go through 1 substance from US20240301046A1.

What is called EC50 is the concentration giving half of the maximal effect. Read a high EC50 as lower potency in that assay. Take “non-conformation selective anti-Aβ antibody 6E10 (BioLegend, 803001)”: the EC50 is 0.08 nM in assay [1], 50000 nM in assay [2], 0.05 nM with Aβ1-42 protofibril and 0.067 nM in assay [3].
